The target in test [1] is T1, MenDRA2 (MenD-RIAD-RIAD with two sequential RIAD peptide tags) (E. coli).
T1 sequence (P17109 whole entry, looked up): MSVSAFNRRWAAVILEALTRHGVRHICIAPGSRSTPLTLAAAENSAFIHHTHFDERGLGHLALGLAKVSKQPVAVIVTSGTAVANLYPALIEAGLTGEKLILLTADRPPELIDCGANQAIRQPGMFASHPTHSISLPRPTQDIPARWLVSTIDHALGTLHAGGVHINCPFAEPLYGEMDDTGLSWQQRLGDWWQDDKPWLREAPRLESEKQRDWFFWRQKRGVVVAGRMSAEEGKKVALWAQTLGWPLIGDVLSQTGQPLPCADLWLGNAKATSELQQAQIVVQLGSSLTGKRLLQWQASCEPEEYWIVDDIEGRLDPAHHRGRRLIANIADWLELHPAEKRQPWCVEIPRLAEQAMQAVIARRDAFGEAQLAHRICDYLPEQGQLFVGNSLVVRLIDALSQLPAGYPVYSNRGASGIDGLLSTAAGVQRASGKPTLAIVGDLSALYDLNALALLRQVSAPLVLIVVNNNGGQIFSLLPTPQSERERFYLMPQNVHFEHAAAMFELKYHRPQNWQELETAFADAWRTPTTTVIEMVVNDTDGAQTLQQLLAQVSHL
The experiment in a line: SEC; 1.5 mg of enzyme fused with RIAD mixed with two-fold molar excess of enzyme fused with RIDD in Tris buffer pH 7.8, 1 mM EDTA, 0.02% Tween-20, no incubation; Superdex 200 10/300 GL, 0.4 mL/min, Tris pH 7.8, 50 mM NaCl; masses from a calibration curve. A general note: Size exclusion chromatography separates by hydrodynamic size, large species first.

The target in test [2] is T2, MenDRA (MenD-RIAD with one RIAD peptide tag) (E. coli).
T2 sequence (P17109 whole entry, looked up): T1 sequence (P17109 whole entry, looked up)
The test is described as above.

B1: MenHRD (MenH-RIDD with one RIDD peptide tag), P10644 1-44 (enzyme)
chain: MILHAQAKHGKPGLPWLVFLHGFSGDCHEWQEVGEAFADYSRLYVDLPGHGGSAAISVDGFDDVTDLLRKTLVSYNILDFWLVGYSLGGRVAMMAACQGLAGLCGVIVEGGHPGLQNAEQRAERQRSDRQWVQRFLTEPLTAVFADWYQQPVFASLNDDQRRELVALRSNNNGATLAAMLEATSLAVQPDLRANLSARTFAFYYLCGERDSKFRALAAELAADCHVIPRAGHNAHRENPAGVIASLAQILRFGGGGSGGGGSGGGGSSLRECELYVQKHNIQALLKDSIVQLCTARPERPMAFLREYFEKLEKEEAK
modifications: not checked
As for B1, the stoichiometry N (MenH per 4 MenD (per particle)) came out at 16 in test [1] and 8 in test [2].
